{"source": "patent US20140294898A1", "target": "human PD-L1 on cells (human) (UniProt Q9NZQ7)", "sequence (Q9NZQ7 19-290)": "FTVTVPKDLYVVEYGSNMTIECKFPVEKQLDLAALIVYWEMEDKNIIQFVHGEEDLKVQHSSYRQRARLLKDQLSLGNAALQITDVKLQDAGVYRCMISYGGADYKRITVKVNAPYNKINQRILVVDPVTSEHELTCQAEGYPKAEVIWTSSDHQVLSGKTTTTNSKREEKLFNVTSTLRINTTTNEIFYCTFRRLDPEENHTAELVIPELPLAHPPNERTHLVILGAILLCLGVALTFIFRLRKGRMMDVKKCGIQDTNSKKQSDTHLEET", "assay": "cell-based or functional assay"}
{"substance": "anti-PD-L1 antibody (MDX-1105)", "values": [{"measurement": "IFNγ secretion by CMV-specific T cells (ELISA), EC50", "result": 0.6, "unit": "nM"}]}
